{
  "source": "the DeepSol protein solubility set",
  "data": [
    {"test": "soluble on expression in E. coli; label from the status in PepcDB or PDB records", "values": [
      {"sequence": "MSTQEDFLKRLESVTSRLEAIAGQKPALAPKPTNLGGPSAYSLHFFFALQFYFSSSPPTSTMDSLYYSAPRPFNKYPRGYRPVTDSTQDLRSFGGGLRPSSSWSSFPQQVVIDQRSATLPHFPSSCVSPVSPTSPVDRNTNYWTAEEPPRSRRPIRSESNSTLFDNNFSPRELSPLSVASEYCNNPQPASMYGHRSVQSPVPAFQDAPPRGYDNVPPPQSYKQPTHPSPSQRETDFLRNLQRQKAEAHNMSSSWYAGDQSSRQTDFGTLPSPQHYNSNSSDHHPPRRLAKTQSDLSFDSLNNTYFNNTSNHTPSNTFLNHSTVDSHNNSSGQLHNSINNYTASTNGNQGHRLDGFFRNRVIEPNWMTDPPPPKSFREDYIIRNAPLNSNLNSDFERFRLEPTYREPRGNSLVSEQPNFRSYHNDEPTQEQPNPRYQRSSSNFMQQRDPSPVRSPPIISYAQQSNPFSFPNPINQVNYNQEDHSSRVSTGGYQDRRVAQAPKEATTNVYQNVPAAAAVNFREKERPTSQYLESNRNSAAFPNEPIKLTNDRVLRIHPHQQVQDQYHHHQMPEEPHYPQPHQPIQQSQRARIQSPLRDFARLTSPIREVAPQPYHPPQAQNQNQNPERIFSPVESKVFNRSGPTVINGFTSNRHTYNSHTDDFDSRNRRDSSQPPVAIIEPNINVHMPSDPMPYNKPHFGHGHGHSNGNNNVHSVKPTSHYSNPTFSPTSTFSPNSNYDNDNDSDLDIEEMARRALPRYLRDNEKTGRHRNLYGDNLHGILIKNPSLHRSSSKKVVFIDQNKASAAASAGDSGEVPAHVRAYDDAIEEPLANWSKLTDQLGGDLAAVKPKVLAMFASMRNYLWSAAGKSEPSAEEAQKMLTPVINLLGEINNFKDTKRKTPHWNHLNSVAEALPALGWVTVKKTPAPYVKEFIEAAQFYINPILREFKETDPRHVEWTKAWKAVFEEMQKFVRQVHTTGLVWNSAPGAAPDASASAPSAAAPSAPKAPAGPGGPPPPPPPPPADFFANIAPPPVDADKASRDALFASLNQGEGVTSRLKKVTADMQTHKNPNLRGTAVVPAAGASQGGSSPAKPAAPVRKPPHKELENGKQWIVEYFVNDPNIVLDVADKKQTVYIYRCENSVIKVNGKANSITLDGCKKTSVVFDALVAQCETVNCQSVQIQTLGELPTLSIQKTDGCQVYLSKVAQGCEIVTSKSSEMNISVQTNDDGDYSEFPVPEQFKTTFVNGKLVTVVSDIC", "soluble on expression in E. coli": "not soluble"},
      {"sequence": "IFFMEAMSPQQETLGGQPGRSSSLTGVSRLAGGSCTKKKMKTLAERRRSAPSLILDKALQKRPTTRDSPSASVDTCTFLSSLVCSNRTLLIDGRAELKRGLQRQERHLFLFNDLFVVAKIKYNNNFKIKNKIKLTDMWTASCVDEVGEGNTNAMKSFVLGWPTVNFVATFSSPEQKDKWLSLLQRYINLEKEKDYPKSIPLKIFAKDIGNCAYSKTITVMNSDTANEVINMSLPMLGITGSERDYQLWVNSGKEEAPYPLIGHEYPYGIKMSHLRDSALLTPGSKDSTTPFNLQEPFLMEQLPREMQCQFILKPSRLAAAQQLSDSGHKTFKRRRSIINWAFWRGSSTHLDNLPSSPTSPMPGQLFGISLPNICENDNLPKPVLDMLFFLNQKGPLTKGIFRQSANVKSCRELKEKLNSGVEVHLDCESIFVIASVLKDFLRNIPGSIFSSDLYDHWVSVMDQGNDEEKINTVQRLLDQLPRANVVLLRYLFGVLHNIEQHSSSNQMTAFNLAVCVAPSILWPPASSSPELENEFTKKVSLLIQFLIENCLRIFGEEITSLFREVSVRCDTRENASDISCFQLNDSSYDSLENELNEDVDAPCSDLVKKLGQGSRSMDSVLTLSDYDLDQPEVEGLLTLSDFDLAHSKDEDVQMKRPLESKPVNILVYTKIPLRDHARAPSAMCTPSYLSTAAANAAKSLRRHRRCSEPSIDYLDSKLSYLREFYQKKLRKSSCDAILSQKDEDYLKQNQPLQEEGKTCFKQSLVTGTDVSKKNATTQNTKKKSLSGSEGNHVKLFPKSKPVAISVASYSPMSSQDHSKNQPFDVNTSGYSPPHTADALKGPRTHRRCSEPNIEDQNRKLTYLRGIYSKKQHKTSCEAGLLHGEEDYLKRHKSLQMEGQKLINQSLVMGIEVGKSSATNQNTEKVLPPRLNLCPRTSYSSLSSPGTSPSGSSVSSQDSAFSQISEHSVFTPTETSSPIDCTFQAQRKREDLSPDFSNASHVSGMPGPSSGQACSRPAYTKKDTMEWHSQMHSVTLHPSTWLRNGVASLKNWSLKKKAKAARPEEEKIASPKGPLEPPPHASGVPEANSLQEEQKDLPLRAAEGLSPVQSAQRCSSSPFQDSERHCSSPFSLVESRLKLCMKSHEEIEPGSQSSSGSLPWERASASSWTLEDATSPDSGPTVVCDIEDRYLTKDI", "soluble on expression in E. coli": "soluble"},
      {"sequence": "QGALYLVPTPIGNLEDMTFRAIRMLKEADIIAAEDTRNTVKLLNHFEITTRMTSYHQFTKENKEDNIIQRMLDGEVVALVSDAGMPSISDPGYELVQNALNANIPVIPLPGA", "soluble on expression in E. coli": "not soluble"},
      {"sequence": "MAHHHHHHMELLNQENDGFLEDMSDSINKQIKELENVPSKDIIRNIWFKVHCNERNKFHSLIYSIRKIHDKYFSDTNKNEELGKKVWNKCCAIITEELLKLDSIQNSQFHNLMQQETVTLQEFEDFVKFSVNGYKNTKKETKKICIKKLKKALNQRL", "soluble on expression in E. coli": "soluble"},
      {"sequence": "MNPLEAVEHQGGLQLSTPPYEIAVDQKCYWRNQPIGLTLQGHNESIWFKGFVIQPFKWNNDQLGERFGQLVRLDDNGSWQQQCFRYQVSATHSHDEKKKHIKMWWKVDDEVDTVQFVATVVKHQTQFWVKSVRSRPLPPCRLNRDGFPNYQAPVPQIPPQVKQFKMETFKVFDSIVRRRPFNH", "soluble on expression in E. coli": "not soluble"},
      {"sequence": "MAKVTVILTSYNKPNTVGAAIESVLSQSFQDWELWIMDDASNEETQQVIDSYMLYPNVYYYNSQVKDEERHKSTRYATLINEAISRSTGDYLCYLTDDNYYLPERLQKMVQYLERYPSVDVVYSKQLVRTVDNQLITQAERIRPTKGTIRYAENIVDHCSVMHRRSLAEKVYETYGSYWNDDPICWHNGDAFFWNRLSAFALFYPINEVLDVCLKSPTSFQALNAFLPEYLPSGTLVKGLGADVYLIEDNHRRAITPTMFQQLHYREENVVHIPDPVLFKYKEGPAIDEHIWEQGKLFPNHRLIKASQEPHIYYVENHRKRHILTHKEFRLYKFRASEVVEVSRSFLDSIPTGPPISAHVNNQHPLPEGLLVRCGFKFYLSGNNRLYPIKSRVMKKLNLQMKNAVFLDSRAIGRYEQGETIEWKTNKCQPRFNTSSLEHHHHHH", "soluble on expression in E. coli": "not soluble"},
      {"sequence": "MRKPRITYLDVWANDERIGTLEKGAMYRFAYDNPNSSLLGLHYQDRSKVYISNNMPHIFAQYFPEGFLDAHITSKYAFHDAPFEDNEMLRLAILCRETLGRIHVRCNDPLFNEWIDGLEMKNPRILTERDLLGINARQVFQQYMAEIFHHGRFVSVSGIQQKMSLDAIRRNTKQTASYIAKGFDASEYPCLAANEFLCMQTIKQAGIAVAQTSLSEDSSVLLVRRFDVSEQGYFLGMEDFTSLRQYSVEDKYKGSYAAIAQIIRQISGRPDEDLIHFFNQLAASCILKNGDAHLKNFSVLYHDEYDVRLAPVYDVLDTSIYRVGTQGIFDAYDDTLALNLTNHGKKTYPSKNTLLDFAEKYCDLGREDASFMIDTIVQAKEQVLVKYSDVLRENEWLAQKWHFIPDENEEGLPFTFR", "soluble on expression in E. coli": "not soluble"},
      {"sequence": "MKETIMNQKLTKRQAEVHTGRKGTAHRKKVVHTTAEDKKFQFSLKKLGVNNIPGIEEVNMFTHQGTVIHFNNPEVQASLAANTFTMTGHAETKQLTEMLLSIDHKPVLQMV", "soluble on expression in E. coli": "soluble"},
      {"sequence": "MSLWLAGTWYTGQRIETESQTRLNEINAQLAAAFPEFPVRINQLKLERGFFTSQARYGVEVGKSEETGKPEATVEVDARIEHGPFAPGALARGKLMPQLAFVHAEVANTEDLKKVFEVTKGATPLWSDTVVAYNGDSTSTGGLAAIDYSGDEGKFAFSGATFDGSYQRATQAAIGSLKADSLALDASADDDGGPLLFTLDGLAVTVDSRMGKSGLSIGDSALSVKRLEVKQPEGDAHLTVADMAYAARIGEQDEFINGEISYGAGEITYNGIALGNGRAVFKAERLNAAAIKVVADEYNKAIKLQAEGKDPVPDNAEMRKLLMAQADTLLAGKPVLTLDPVQWKTAQGESVFNARVALSKPASSDLMAVDYFSQAIESIDASATLSKPMIKALMVGYLQSQEGMDAQQAAAAADQQVSSLAGMAEMMNLGKNEGDNIVSKFHYAAGTVDLNGRKMPADQLLGSILGGEGHHHHHH", "soluble on expression in E. coli": "not soluble"},
      {"sequence": "MSLTNLDFHIVKRIRQRIAQGGDNAALKHKQNGQWQAINWHQFGEQLDELSMALLAQGIGVQDKIAIFSNNMPRWTIADFAALQIRAVTVPIYPTNTPEQAAYILQNADVKVVFVGEQAQFDAALSQFEQCPELRLIVAMNANIDLKQASCAMHWDEFVAQSHHQDRAPLDALIEQANYDDLFTLIYTSGTTGTPKGVMLDYRNIGAQLEGHDQRLNLTQEDVSLCFLPLSHVFERAWTAYVLYKGATNCYLQDVAHVREALAEVRPTVMCAVPRFYEKIFSAIHEKVVKAPLVRKVLFTWAVNMGAKMAVCRQQQRQPSWMLKQSHQFADKLVLSKLRALLGGRINFMPCGGAKLDETIGRFFHAIGINVKLGYGMTETTATVSCWDDHCFNPDSIGLSMPGAQVKIGENNEILVRGPMVMRGYYKLDKETTESFDEQGFLKTGDAGHIDENGNLFITDRIKELMKTSGGKYIAPQVIEGAIGKDHFIEQIAVIADTRKFVSALIVPCFDSLEEYAKELNIKYHDRLELIKHSQVLEMFEKRVNELQKELAKFEQVKKFRLLPKAFSMDSGELTPTQKLRREGHHHHHH", "soluble on expression in E. coli": "soluble"},
      {"sequence": "MAHHHHHHMKKSINILVCNNYLIHDFLSFFKNSDIDVGTKMDFIQKKASQVRIILLNGNEIMPGINVNYLEQIKEVFINAKIYVRYVVQEVGTVSIMELGQLEQDNIPYERKLAGYVLPNVHVKIDSKTNVMKIKSDNVFSQYYNNGKLTSQAFDQGGFFKTKYVASLAENALLKIEGIHNDMENIPDEYYLYFKQRRDKMEKHPPGYLKRVPLQGQIWGNFHANRRNWKRKF", "soluble on expression in E. coli": "not soluble"},
      {"sequence": "MGHHHHHHSHMNGRADFREPNAEVPRPIPHIGPDYIPTEEERRVFAECNDESFWFRSVPLAATSMLITQGLISKGILSSHPKYGSIPKLILACIMGYFAGKLSYVKTCQEKFKKLENSPLGEALRSGQARRSSPPGHYYQKSKYDSSVSGQSSFVTSPAADNIEMLPHYEPIPFSSSMNESAPTGITDHIVQGRNFS", "soluble on expression in E. coli": "soluble"},
      {"sequence": "MFADLDYDIEEDKLGIPTVPGKVTLQKDAQNLIGISIGGGAQYCPCLYIVQVFDNTPAALDGTVAAGDEITGVNGRSIKGKTKVEVAKMIQEVKGEVTIHYNKLQADPKQGMSLDIVLKKVKHRLVENMSSGTADALGLSRAILCNDGLVKRLEELERTAELYKGMTEHTKNLLRAFYELSQTHRAFGDVFSVIGVREPQPAASEAFVKFADAHRSIEKFGIRLLKTIKPMLTDLNTYLNKAIPDTRLTIKKYLDVKFEYLSYCLKVKEMDDEEYSCIALGEPLYRVSTGNYEYRLILRCRQEARARFSQMRKDVLEKMELLDQKHVQDIVFQLQRLVSTMSKYYNDCYAVLRDADVFPIEVDLAHTTLAYGLNQEEFTDGEEEEEEEDTAAGEPSRDTRGAAGPLDKGGSWCDS", "soluble on expression in E. coli": "soluble"},
      {"sequence": "MPRYIVRPFHLLNLPTVVISEVLNHLKNIDICILRTTSRKIRTIGKLSARRKQTYLVGHRRLDLTINARFGKFKVESGARDGTVALYAGYDINRVLDITSDFFDYLDIYIYLYIIDNHSDKDAKKLVEVIVTKGIYVHYLRFDGEQISHELFREMLKCDVNELRIHLRTQHTVELSDIDLMVSCKCVALTRITIPSDYLNVLLKKWQANRNLTFFSASGMALTLDKSIILEGTNSEQGSEEYNFYIKCNNRKTALLKILHNSFRLGNVY", "soluble on expression in E. coli": "not soluble"},
      {"sequence": "MVVLNTPGKYQYDLRNHLLVNLFPIALDAEITTSNVNKHQLHRSNIPAALSGNSGITDYVPFSAERNAAMVIWRTAIDSRPAVCNDEEGTPGTL", "soluble on expression in E. coli": "not soluble"},
      {"sequence": "MSLWKSMTYYQKMIQEPSREKLLPDPLKYPYVQPPYTLVLEMKDVLVHPDWTYQTGWRFKKRPGVDKFLETLAANYEIVVFTADQGMTVFPILDALDPRGYIMYRLVRDATHFVDGHHVKNLDNLNRDLSKVIVVDWDPNSTKLHPENTLNIPRWTGNDDDAGLFDLMAMLVTIATSEVEDVRDVMTYYKSFENPLVKFRENQRLLAEQMAEREHEEKQRNLPAVQRWRPSFLEGHHHHHH", "soluble on expression in E. coli": "soluble"}
    ]}
  ]
}
